Laboratory results reported in the supplement of paper PMC9876800.

System: peptide library, one residue held at a place counted from the S/T acceptor
Assay: relative phosphorylation of the sub-library (ratio to the mean residue at this position); higher = residue favoured
Settings: human
In short: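 In 384-well plates, purified recombinant kinases (human or orthologue constructs) were incubated for 90 min under kinase-specific conditions with 50 μM biotinylated degenerate peptide sub-libraries and 50 μM ATP spiked with γ-32P-ATP. Each sub-library fixed a single residue at one position around a central Ser/Thr. Relative sub-library phosphorylation, measured by phosphorimaging and densitometry of streptavidin membrane spots, is given as a ratio to the mean residue at that position.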

TGFBR1, construct: aa20-end, sequence (P36897 20-503, looked up): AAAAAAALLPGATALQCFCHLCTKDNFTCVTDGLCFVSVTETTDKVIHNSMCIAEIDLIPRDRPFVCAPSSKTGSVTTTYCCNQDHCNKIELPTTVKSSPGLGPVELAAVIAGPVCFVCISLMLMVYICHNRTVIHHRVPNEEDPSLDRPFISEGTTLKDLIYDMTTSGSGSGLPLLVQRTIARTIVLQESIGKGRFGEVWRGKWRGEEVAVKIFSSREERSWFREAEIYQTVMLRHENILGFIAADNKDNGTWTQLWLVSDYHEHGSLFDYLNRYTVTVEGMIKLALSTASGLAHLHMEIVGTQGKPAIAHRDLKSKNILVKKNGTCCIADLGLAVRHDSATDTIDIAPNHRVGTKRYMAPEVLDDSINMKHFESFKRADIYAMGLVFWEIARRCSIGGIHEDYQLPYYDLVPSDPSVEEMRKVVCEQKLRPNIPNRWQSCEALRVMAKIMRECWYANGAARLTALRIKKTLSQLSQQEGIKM

TGFBR1, construct: aa20-end (from UniProt P36897)
relative phosphorylation
Settings	at +1	at +2	at +3	at +4	at -1	at -2	at -3	at -4	at -5
A fixed	0.823	1.16	0.888	0.966	0.853	0.688	0.982	1.11	1.12
D fixed	1.69	1.71	1.48	1.29	1.42	1.62	1.5	1.39	1.15
E fixed	2.27	1.57	1.94	1.55	1.78	7.31	1.73	1.22	1.21
F fixed	1	1.05	0.773	0.942	0.858	0.397	0.748	0.805	0.908
G fixed	0.779	1.13	1.63	1.2	0.834	0.712	1.19	1.33	1.1
H fixed	1.15	0.728	0.792	0.846	0.968	0.513	0.894	0.991	0.944
I fixed	1.03	1.07	0.954	1.01	0.86	0.474	0.814	0.96	0.929
K fixed	0.396	0.545	0.448	0.59	0.5	0.4	0.598	0.719	0.892
L fixed	0.751	0.706	0.899	0.908	1.18	0.486	0.841	0.943	0.878
M fixed	1.25	0.915	0.916	0.871	1.35	0.545	1.1	1.02	0.983
N fixed	0.733	0.874	0.809	0.879	1.06	0.767	1.06	1.15	1.31
P fixed	0.522	1.07	1.32	1.32	0.592	0.459	0.982	1.09	1.03
Q fixed	0.826	0.717	0.794	0.834	1.04	0.893	0.992	0.865	0.917
R fixed	0.357	0.489	0.467	0.519	0.589	0.435	0.633	0.697	0.844
V fixed	1.05	1.18	1.02	0.959	1.26	0.501	0.924	1.02	0.978
W fixed	0.919	0.954	0.915	1.27	0.804	0.4	1.2	0.787	0.822
Y fixed	1.44	1.12	0.956	1.03	1.04	0.401	0.815	0.89	0.98
pThr fixed	3.78	1.38	1.04	1.62	1.19	1.48	1.07	0.963	0.853
pTyr fixed	4.22	1.82	1.39	1.66	1.51	0.639	1.08	1.05	0.835
